Experimental data as given in US20060281090A1 (University of Washington, published 2006).

B1: purified recombinant Ad5 fiber knob domain (other)
chain: DKLTLWTTPAPSPNCRLNAEKDAKLTLVLTKCGSQILATVSVLAVKGSLAPISGTVQSAHLIIRFDENGVLLNNSFLDPEYWNFRNGDLTEGTAYTNAVGFMPNLSAYPKSHGKTAKSNIVSQVYLNGDKTKPVTLTITLNGTQETGDTTPSAYSMSFSWDWSGHNYINEIFATSSYTFSYIAQE
notes: also called Ad5 knob
B2: purified recombinant Ad35 fiber knob domain (other)
chain: SINTLWTGINPPPNCQIVENTNTNDGKLTLVLVKNGGLVNGYVSLVGVSDTVNQMFTQKTANIQLRLYFDSSGNLLTEESDLKIPLKNKSSTATSETVASSKAFMPSTTAYPFNTTTRDSENYIHGICYYMTSYDRSLFPLNISIMLNSRMISSNVAYAIQFEWNLNASESPESNIATLTTSPFFFSYITEDDN
notes: also called Ad35 knob; biotin-conjugated Ad35 fiber knob domain

Columns and labels:
[1] = molecular target: recombinant human coagulation factor IX (human) (UniProt P00740); experiment: cell-based or functional assay
[2] = molecular target: T1, recombinant human coagulation factor IX (human, UniProt P00740 47-461); experiment: SPR, FIX immobilized on the sensor, knob in solution
T1 construct: also called FIX; human FIX
T1 sequence (P00740 47-461 limits assumed): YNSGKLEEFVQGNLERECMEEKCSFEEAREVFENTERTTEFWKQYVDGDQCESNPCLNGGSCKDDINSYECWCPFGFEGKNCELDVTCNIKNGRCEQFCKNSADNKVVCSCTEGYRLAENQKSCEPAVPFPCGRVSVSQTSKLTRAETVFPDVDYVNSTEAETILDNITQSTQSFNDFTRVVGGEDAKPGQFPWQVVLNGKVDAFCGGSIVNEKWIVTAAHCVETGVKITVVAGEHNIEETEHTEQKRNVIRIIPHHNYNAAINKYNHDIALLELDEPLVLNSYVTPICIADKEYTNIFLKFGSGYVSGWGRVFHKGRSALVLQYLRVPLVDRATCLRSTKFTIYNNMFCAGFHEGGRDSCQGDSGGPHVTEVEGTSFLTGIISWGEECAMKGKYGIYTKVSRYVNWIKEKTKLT

Chain of recombinant human coagulation factor IX (human) (P00740 47-461 limits assumed): as above

Molecule	reporter gene activities in HSPG-expressing CHO-K1 cells infected with FIX compared to infection without FIX [1] [fold]	transduction of primary human hepatocytes (luciferase activity) with FIX compared to without [1] [fold]	binding result [2]
Ad5/35L virus (Ad5 capsid, long Ad5 fiber shaft, Ad35 fiber knob domain) (from UniProt P11818 1-399)	> 45		
Ad5F* virus (long-shafted Ad5-based vector, fiber knob aa 477 Y to A, C-terminal 6-His) (from UniProt P11818 1-581)	> 45	> 14	
B1			binds
B2			binds
